The values that follow come from paper PMC5902456.

Like-named read-outs stand apart in the source and are kept apart here.

Experiment [1] deals with sfGFP-MAP7 (full-length human MAP7) (human) (UniProt Q14244). As to the kind of experiment: TIRF microscopy of fluorescent proteins on immobilized microtubules; recruitment and motility: MAP7 (or ensconsin), 5 nM, flowed in first onto immobilized microtubules, then the kinesin-1 construct (1 nM K560); BRB80 pH 6.8 with 1 mM ATP, 150 mM K-acetate; fold change of kinesin fluorescence on the microtubule against no MAP.

The target of experiment [2] is taxol-stabilized microtubules of native tubulin, biotin-tubulin and fluorescent-tubulin from porcine brain (~10:1:1) (porcine) (UniProt P02550). Put plainly: TIRF microscopy of fluorescent proteins on immobilized microtubules; 5 nM KIF1A-mScarlet or 3 nM DDB-TMR on immobilized microtubules, alone or with 5 nM sfGFP-MAP7 or 100 nM mTagBFP-tau; 30 mM Hepes pH 7.4, 150 mM K-acetate, 2 mM Mg-acetate, 1 mM EGTA, 10% glycerol, 1 mM ATP.

Experiment [3] has the same target. As to the kind of experiment: TIRF microscopy of fluorescent proteins on immobilized microtubules; TIRF-M-based microtubule-binding assay; KD derived from saturation curves.
For experiment [4], the target named is taxol-stabilized microtubules polymerized from porcine brain tubulin (porcine) (UniProt P02550).
The target in experiment [5] is sfGFP-Ensconsin, wild type (Drosophila melanogaster) (Drosophila melanogaster). Put plainly: TIRF microscopy of fluorescent proteins on immobilized microtubules; recruitment and motility: MAP7 (or ensconsin), 5 nM, flowed in first onto immobilized microtubules, then the kinesin-1 construct (1 nM K560); BRB80 pH 6.8 with 1 mM ATP, 150 mM K-acetate; fold change of kinesin fluorescence on the microtubule against no MAP.
Chain of sfGFP-Ensconsin, wild type (Drosophila melanogaster) (Drosophila melanogaster) (main, as listed by the source): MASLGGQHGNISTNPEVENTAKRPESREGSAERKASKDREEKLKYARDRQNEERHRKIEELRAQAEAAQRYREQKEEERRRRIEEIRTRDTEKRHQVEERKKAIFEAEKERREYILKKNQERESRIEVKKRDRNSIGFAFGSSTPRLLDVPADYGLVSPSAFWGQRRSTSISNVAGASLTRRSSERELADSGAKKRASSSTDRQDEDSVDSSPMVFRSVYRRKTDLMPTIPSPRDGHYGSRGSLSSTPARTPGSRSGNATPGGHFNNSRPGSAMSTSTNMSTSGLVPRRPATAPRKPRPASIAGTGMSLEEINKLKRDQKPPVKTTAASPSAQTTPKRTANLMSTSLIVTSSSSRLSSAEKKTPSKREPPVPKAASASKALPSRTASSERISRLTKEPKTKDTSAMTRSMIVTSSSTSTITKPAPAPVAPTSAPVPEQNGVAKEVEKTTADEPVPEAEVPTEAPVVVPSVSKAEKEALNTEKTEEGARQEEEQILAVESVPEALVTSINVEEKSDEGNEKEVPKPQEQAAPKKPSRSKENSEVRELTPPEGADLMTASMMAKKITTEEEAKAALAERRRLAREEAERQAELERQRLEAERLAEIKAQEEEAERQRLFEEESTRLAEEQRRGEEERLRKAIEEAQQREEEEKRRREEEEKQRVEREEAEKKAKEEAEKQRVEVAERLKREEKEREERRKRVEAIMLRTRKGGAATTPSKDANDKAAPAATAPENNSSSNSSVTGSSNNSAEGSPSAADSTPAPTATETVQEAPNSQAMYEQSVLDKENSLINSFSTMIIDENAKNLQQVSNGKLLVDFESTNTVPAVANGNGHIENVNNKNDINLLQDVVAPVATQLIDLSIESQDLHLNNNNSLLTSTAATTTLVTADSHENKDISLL

Experiment [6] concerns the target taxol-stabilized microtubules of native tubulin, biotin-tubulin and fluorescent-tubulin from porcine brain (~10:1:1) (porcine) (UniProt P02550). The experiment is described as above.
Experiment [7] has as its target taxol-stabilized microtubules polymerized from porcine brain tubulin (porcine) (UniProt P02550). As to the kind of experiment: co-sedimentation; 500 nM sfGFP-MAP7 or sfGFP-tau with increasing microtubules; 50 mM Tris pH 8, 150 mM K-acetate, 2 mM Mg-acetate, 1 mM EGTA, 10% glycerol, DTT, taxol, BSA; 25 °C, 20 min; pelleted at 90,000 g; SDS-PAGE; apparent KD.
The target is the same in experiment [8]. Described as above. This is another data set of the same source.
The target in experiment [9] is taxol-stabilized microtubules of native tubulin, biotin-tubulin and fluorescent-tubulin from porcine brain (~10:1:1) (porcine) (UniProt P02550). Put plainly: single-molecule dwell time by TIRF microscopy; 250 pM sfGFP-MAP7 or 10 nM sfGFP-tau on immobilized microtubules; kymograph analysis; cumulative frequencies fit to a one phase exponential decay; 30 mM Hepes pH 7.4, 150 mM K-acetate buffer.

In the case of “K508-mScarlet (from UniProt P33176 1-508) (domain or fragment)”, the fold change in fluorescence intensity on the microtubule in the presence of sfGFP-MAP7 in experiment [1] came to 10.9 fold.

As for “K523-mScarlet (from UniProt P33176 1-523) (domain or fragment)”, in experiment [1], the fold change in fluorescence intensity on the microtubule in the presence of sfGFP-MAP7 was determined as 152 fold.

With “dynein–dynactin-BicD2 (DDB)-TMR complex (from UniProt Q921C5 1-820)”, in [2], the fluorescence intensity on the microtubule is 164 A.U and the fluorescence intensity on the microtubule with 5 nM sfGFP-MAP7 was found to be 147 A.U.

In experiment [3], “sfGFP-MAP7ΔC (aa 1–353) (from UniProt Q14244 1-353) (domain or fragment)” returned a Kd of 1390 nM.

“K560-mScarlet (truncated human kinesin-1) (from UniProt P33176 1-560) (domain or fragment)”: in experiment [4], the KmMT of the microtubule-stimulated ATPase of 50 nM K560-mScarlet, with 50 nM sfGFP-MAP7 stood at 0.27 µM and the KmMT of the microtubule-stimulated ATPase of 50 nM K560-mScarlet, without MAP7 turned out to be 1.46 µM. Besides, the fold change in fluorescence intensity on the microtubule in the presence of ensconsin in experiment [5] came to 147 fold. Also, in experiment [1], the fold change in fluorescence intensity on the microtubule in the presence of sfGFP-MAP7 amounted to 165 fold. Also, in [6], the landing rate (motors μm^−1 min^−1) was determined as 0.09 and the landing rate with 5 nM sfGFP-MAP7 (motors μm^−1 min^−1) stood at 1.34.

On to “sfGFP-MAP7 (full-length human MAP7) (from UniProt Q14244 1-749) (natural protein)”, for which the Kd in [3] is 3030 nM; in [7] it was 460 nM; in [8], 470 nM. In addition, the dwell time decay constant τ in experiment [9] stood at 82.3 s.

B1: KIF1A-mScarlet (human KIF1A 1–393) (domain or fragment)
chain: MAGASVKVAVRVRPFNSREMSRDSKCIIQMSGSTTTIVNPKQPKETPKSFSFDYSYWSHTSPEDINYASQKQVYRDIGEEMLQHAFEGYNVCIFAYGQTGAGKSYTMMGKQEKDQQGIIPQLCEDLFSRINDTTNDNMSYSVEVSYMEIYCERVRDLLNPKNKGNLRVREHPLLGPYVEDLSKLAVTSYNDIQDLMDSGNKARTVAATNMNETSSRSHAVFNIIFTQKRHDAETNITTEKVSKISLVDLAGSERADSTGAKGTRLKEGANINKSLTTLGKVISALAEMDSGPNKNKKKKKTDFIPYRDSVLTWLLRENLGGNSRTAMVAALSPADINYDETLSTLRYADRAKQIRCNAVINEDPNNKLIRELKDEVTRLRDLLYAQGLGDITD
On to B1, for which, in experiment [2], the fluorescence intensity on the microtubule is 1000 A.U, the fluorescence intensity on the microtubule with 5 nM sfGFP-MAP7 came out at 332 A.U, the fluorescence intensity on the microtubule with 100 nM mTagBFP-tau turned out to be 427 A.U and the landing rate (motors μm^−1 min^−1) is 1.5. In experiment [2], this molecule showed a landing rate with mTagBFP-tau (motors μm^−1 min^−1) of 0.24 and a landing rate with sfGFP-MAP7 (motors μm^−1 min^−1) of 0.38.
